The chains are these.
B1: FJ1427_P035MP05B05 (VHH)
VHH: EVQLVESGGGLVQAGGSLRLSCAASGFTFDGYAVGWFRQAPGKEPEGVSYITGSDGVTYYIDSVKGRFTISSDNAKRTVYLQMNTLKPEDTAVYYCAVDRLGSQGRYASSWWRAGDMDFWGKGTLVTVSS
notes: periplasmic extract; also called clone nr
B2: FJ1427_P035MP05E04 (VHH)
VHH: QVQLVESGGGLVQAGGSLRLSCAASGGTFRTRNMGWFRRAPGKEREFVAAVSWSVDNKLYAGSVKGRFTISRDNGRNMVYLQMNSLKPEDTAVYYCAADNIPLSSDMRPTATEFGYWGQGTRVTVSS
notes: as for B1
B3: FJ1427_P035MP01C11 (VHH)
VHH: B2 VHH with S54N, F114Y, G115D, R122Q
notes: periplasmic extract; also called clone nr; 83
B4: 9-MP05G01 (VHH)
VHH: EVQLVESGGGLVQAGGSLRLSCAASGGSIYTYNMGWFRQAPGKEREFVAGTLWSGGDSVYADFAKGRFTLSRENAKNTLYLQMNSLKPEDTATYYCAIDPLSLTSDWRVDELSSWGKGTLVTVSS
notes: periplasmic extract; also called FJ1427_P035MP05G01
B5: FJ1427_P035MP05A05 (VHH)
VHH: QLQLVESGGGLVQAGGSLRLSCAASGLTFDGYAIGWFRQASGKEREGVSYINGRDGSTFYADSVKGRFIISSDNAKNTVDLQMNSLKPDDAAVYYCAVDRLGSRGAYVSTWWRPPDMDLWGKGTLVTVSP
notes: periplasmic extract; also called clone nr; 417
B6: FJ1427_P035MP05D04 (VHH)
VHH: B5 VHH with K87N, T110S, P114S, P130S
notes: as for B1
B7: FJ1427_P035MP05C06 (VHH)
VHH: B5 VHH with L2V, A61T, T110S, P114S, P130S
notes: as for B1
B8: FJ1427_P035MP05H08 (VHH)
VHH: B5 VHH with P114S, P130S
notes: as for B1
B9: FJ1427_P035MP05C09 (VHH)
VHH: QLQLVESGGGLVQAGGSLRLSCAASGFTFDGYAIGWFRQAPGKEREGVSYITGSDGSTYYADSVKGRFTISSNNAKNTVYLHMNSLKPDDAAVYYCAIDRLGSRGAYVPIWWRSSDMDLWGKGTLVTVSS
notes: as for B1
B10: 12-MP05B12 (VHH)
VHH: B9 VHH with L2V
notes: periplasmic extract; also called FJ1427_P035MP05B12
B11: FJ1427_P035MP05C10 (VHH)
VHH: B9 VHH with A14T, A23S, A24T, R45P, N73D, R104G
notes: as for B1
B12: FJ1427_P035MP05B08 (VHH)
VHH: QLQLVESGGGLVQAGGSLRLSCVAHGLTFDGYAIGWFRQAPGKELEGVSYITGSDGSRYYADSVKGRFTISSDVAKNTVYLHMNNLKPDDAARYYCAVDRLGSRGAYVSAWWRSSDMDLWGKGTLVTVSS
notes: as for B1
B13: FJ1427_P035MP05A10 (VHH)
VHH: QLQLVESGGGLVQAGGSLRLSCTASGLTFDGYAIGWFRQAPGKEREGVSYITGSDGSTYYIDSVKGRFTISSDIAKSTVYLQMNSLKPEDTAVYYCAVDRLGSRGLYASSWWRSGDMDLWGKGTLVTVSS
notes: as for B1
B14: FJ1427_P035MP05C11 (VHH)
VHH: B13 VHH with L2V, D30E, G56A, I74F, S85N, L106G
notes: as for B1
B15: 11-MP05H04 (VHH)
VHH: B13 VHH with T23A, D30E, S57T, D62N, I74N, S85T, R104Q, L106R, S110A, L125Q
notes: periplasmic extract; also called FJ1427_P035MP05H04
B16: FJ1427_P035MP05G08 (VHH)
VHH: B13 VHH with D30E, G56A, I74F, S85N, L106G
notes: as for B1
B17: FJ1427_P035MP05H09 (VHH)
VHH: B13 VHH with G10D, A14P, D55N, S85T
notes: as for B1
B18: FJ1427_P035MP05E10 (VHH)
VHH: B13 VHH with Q1E, L2V
notes: as for B1
B19: FJ1427_P035MP05D10 (VHH)
VHH: B13 VHH with L2V, I61R, I74N, S85T
notes: periplasmic extract; also called clone nr; 460

The values below come from patent publication US20240409645A1 (DUALYX, published 2024).

Residue numbers refer to the chain shown, from its start.

The target of one assay is T1, human IL-2Rα (human, UniProt P01589 22-240, limits assumed).
T1 construct: recombinant protein; also called hu IL-2R; human IL-2Ra
T1 sequence: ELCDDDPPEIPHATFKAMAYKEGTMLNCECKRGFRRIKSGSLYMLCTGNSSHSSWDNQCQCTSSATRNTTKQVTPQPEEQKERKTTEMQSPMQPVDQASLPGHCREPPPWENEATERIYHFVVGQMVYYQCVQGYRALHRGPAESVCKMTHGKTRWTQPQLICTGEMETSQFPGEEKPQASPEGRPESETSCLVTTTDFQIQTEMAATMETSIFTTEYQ
In words: ELISA, P.E. on coated antigen. The procedure, abridged:
(§1)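 Read-out: OD at 450 nm, specificity called versus negative controls. Receptor chains (human or mouse IL-2Rα, β, γ) were coated directly overnight at 4° C; 4% Marvel/PBS block 1 h; P.E. at 1:5 dilution in 1% Marvel/PBS incubated 1 h.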
(An ELISA detects its analyte on a solid surface through an enzyme-linked reagent.)
For B1, the “OD (PE binding ELISA)” value came out at 2.15 OD450 nm.
Same read-out and setting: the figure for B2 is 2.38 OD450 nm.
On the same count and under the same terms, the figure for B3 is 2.78 OD450 nm; for B4 it is 2.35 OD450 nm; for B5 it is 1.86 OD450 nm.
For B6, the “OD (PE binding ELISA)” value was 1.91 OD450 nm.
B7: the “OD (PE binding ELISA)” value came to 2.43 OD450 nm.
Consider B8, for which the “OD (PE binding ELISA)” value stood at 2.17 OD450 nm.
B9: the “OD (PE binding ELISA)” value worked out at 0.366 OD450 nm.
B10: the “OD (PE binding ELISA)” value came to 2.14 OD450 nm.
Still for that read-out and setting: the figure for B11 is 0.63 OD450 nm.
For the molecule B12, the “OD (PE binding ELISA)” value is 1.88 OD450 nm.
Same read-out and setting: the figure for B13 is 2.18 OD450 nm.
On the same count and under the same terms, the figure for B14 is 2.14 OD450 nm.
Same read-out and setting: the value for B15 was 2.22 OD450 nm.
With B16, the “OD (PE binding ELISA)” value amounted to 2.39 OD450 nm.
The same measure, in the same setting: the figure for B17 is 2.26 OD450 nm; for B18 it is 2.27 OD450 nm.
Turning to B19, the “OD (PE binding ELISA)” value was found to be 2.09 OD450 nm.

The next assay concerns the target T2, mouse IL-2Rα (mouse, UniProt P01590 22-236, limits assumed).
T2 construct: recombinant protein; also called mo IL-2R; mouse IL-2Ra
T2 sequence (looked up): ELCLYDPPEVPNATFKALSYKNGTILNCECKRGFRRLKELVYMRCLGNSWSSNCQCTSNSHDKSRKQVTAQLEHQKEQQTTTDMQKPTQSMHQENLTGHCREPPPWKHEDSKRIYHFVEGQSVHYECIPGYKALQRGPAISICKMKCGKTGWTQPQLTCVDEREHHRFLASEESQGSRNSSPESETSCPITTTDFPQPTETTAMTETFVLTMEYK
In words: ELISA, P.E. on coated antigen. The procedure, abridged: as §1
As for B1, the “OD (PE binding ELISA)” value turned out to be 0.045 OD450 nm.
With B2, the “OD (PE binding ELISA)” value amounted to 0.046 OD450 nm.
As to B3, the “OD (PE binding ELISA)” value was determined as 0.045 OD450 nm.
Still for that read-out and setting: the value for B4 was 0.047 OD450 nm; that for B5 was 0.052 OD450 nm; that for B6 was 0.045 OD450 nm.
On to B7, for which the “OD (PE binding ELISA)” value worked out at 0.071 OD450 nm.
Still for that read-out and setting: the figure for B8 is 0.05 OD450 nm; for B9 it is 0.059 OD450 nm; for B10 it is 0.936 OD450 nm.
The same measure, in the same setting: the figure for B11 is 0.071 OD450 nm; for B12 it is 0.057 OD450 nm.
In the case of B13, the “OD (PE binding ELISA)” value stood at 0.24 OD450 nm.
For B14, the “OD (PE binding ELISA)” value is 0.632 OD450 nm.
Take B15: the “OD (PE binding ELISA)” value came out at 0.163 OD450 nm.
As to B16, the “OD (PE binding ELISA)” value came out at 0.38 OD450 nm.
Turning to B17, the “OD (PE binding ELISA)” value came out at 0.154 OD450 nm.
On the same count and under the same terms, the figure for B18 is 0.718 OD450 nm; for B19 it is 0.107 OD450 nm.

Another assay concerns the target T1, human IL-2Rα. The assay is described as follows: SPR, P.E. on immobilised antigen. The procedure, abridged: (§2)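 CM5 chip, amine coupling (acetate buffer), ~2500 RU receptor. VHH P.E. flowed at 30 uL/min; off-rate read over 120 s.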
As usually defined, the koff is the first-order rate constant of dissociation. B1 registered an off-rate (koff) of 0.00103 s⁻¹.
Still for that read-out and setting: the value for B2 was 0.00158 s⁻¹.
The molecule B3 registered a koff of 0.000556 s⁻¹.
On the same count and under the same terms, the value for B4 was 0.000169 s⁻¹.
Still for that read-out and setting: the figure for B5 is 0.00341 s⁻¹.
Consider B6, for which the off-rate (koff) is 0.00224 s⁻¹. Compared with the last molecule, the koff is about 1.5-fold lower.
Still for that read-out and setting: the value for B7 was 0.000659 s⁻¹.
For B8, the koff stood at 0.00278 s⁻¹.
B9 showed a koff of 0.00609 s⁻¹.
The same measure, in the same setting: the figure for B10 is 0.000222 s⁻¹.
As to B11, the koff is 0.00406 s⁻¹. Compared with the last molecule, the koff is about 18-fold higher.
For B12, the off-rate (koff) worked out at 0.00253 s⁻¹. This koff is about 1.6-fold lower than that of the molecule before.
The same measure, in the same setting: the value for B13 was 0.0012 s⁻¹; that for B14 was 0.00044 s⁻¹; that for B15 was 0.0012 s⁻¹.
B16: the off-rate constant (koff) was 0.000908 s⁻¹.
Same read-out and setting: the value for B17 was 0.00105 s⁻¹; that for B18 was 0.00169 s⁻¹; that for B19 was 0.00108 s⁻¹.

Another assay deals with T2, mouse IL-2Rα. In words: SPR, P.E. on immobilised antigen. Summed up: as §2
(In general: Surface plasmon resonance follows binding to a sensor surface in real time, without labels.)
Molecule B1 had a koff of 0.0114 s⁻¹.
The same measure, in the same setting: the figure for B2 is 0.196 s⁻¹.
The same measure, in the same setting: the figure for B3 is 0.351 s⁻¹; for B4 it is 0.0442 s⁻¹.
As for B5, the off-rate constant (koff) was found to be 0.0172 s⁻¹.
B6: the dissociation rate constant (koff) was 0.0122 s⁻¹.
The same measure, in the same setting: the figure for B7 is 0.00311 s⁻¹; for B8 it is 0.0129 s⁻¹; for B9 it is 0.00435 s⁻¹.
The same measure, in the same setting: the figure for B10 is 0.000547 s⁻¹; for B11 it is 0.00403 s⁻¹; for B12 it is 0.00608 s⁻¹.
Molecule B13 registered an off-rate constant (koff) of 0.00321 s⁻¹.
The same measure, in the same setting: the figure for B14 is 0.000844 s⁻¹.
Still for that read-out and setting: the value for B15 was 0.00163 s⁻¹.
B16 registered a dissociation rate constant (koff) of 0.00258 s⁻¹.
For B17, the off-rate constant (koff) worked out at 0.00244 s⁻¹.
Consider B18, for which the dissociation rate constant (koff) was 0.00177 s⁻¹.
As to B19, the off-rate (koff) is 0.00284 s⁻¹.
